Earlier results as cited in paper PMC5274714.

Target: human serum albumin (Homo sapiens) (UniProt P02768)
Assay: SPR

protein G ABD3 (from UniProt P19909)
Kd: 4 nM
